Assays:
[1] = target: recombinant mouse IL-17F (SEQ ID NO: 84) (mouse) (UniProt Q7TNI7); assay: cell-based or functional assay
[2] = target: recombinant rat IL-17A (SEQ ID NO: 85) (rat) (UniProt Q61453); assay: cell-based or functional assay
[3] = target: recombinant mouse IL-17A/F (R&D Systems Cat#5390-IL) (mouse) (UniProt Q62386); assay: cell-based or functional assay
[4] = target: recombinant human IL-17A (SEQ ID NO: 76) (human) (UniProt Q16552); assay: cell-based or functional assay
[5] = target: recombinant human IL-17F (SEQ ID NO: 77) (human) (UniProt Q96PD4); assay: cell-based or functional assay
[6] = target: recombinant mouse IL-17A (SEQ ID NO: 83) (mouse) (UniProt Q62386); assay: cell-based or functional assay
[7] = target: recombinant human IL-17A/F heterodimer (human) (UniProt Q16552); assay: cell-based or functional assay
BSA [8] = target: BSA (UniProt P02769); assay: ELISA, BSA wells, control Ab 1 µg/ml (control antibody not identified)
BSA [9] = target: BSA (UniProt P02769); assay: ELISA, BSA wells, control Ab 5 µg/ml (control antibody not identified)

Sequence of recombinant human IL-17A/F heterodimer (human) (Q16552 24-155 limits assumed, chain 1 of 2): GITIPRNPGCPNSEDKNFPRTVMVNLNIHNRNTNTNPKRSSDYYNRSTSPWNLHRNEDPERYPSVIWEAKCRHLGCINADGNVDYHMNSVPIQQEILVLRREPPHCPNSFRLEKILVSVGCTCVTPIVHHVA
Sequence of recombinant human IL-17A/F heterodimer (human) (Q96PD4 31-163 limits assumed, chain 2 of 2, further chain): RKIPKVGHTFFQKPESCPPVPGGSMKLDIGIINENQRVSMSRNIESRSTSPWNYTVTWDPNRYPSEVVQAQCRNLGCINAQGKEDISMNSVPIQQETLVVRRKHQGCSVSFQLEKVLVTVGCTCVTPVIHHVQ
Sequence of recombinant human IL-17A (SEQ ID NO: 76) (human) (Q16552 other isoform, or with tags, fused parts or gaps limits assumed): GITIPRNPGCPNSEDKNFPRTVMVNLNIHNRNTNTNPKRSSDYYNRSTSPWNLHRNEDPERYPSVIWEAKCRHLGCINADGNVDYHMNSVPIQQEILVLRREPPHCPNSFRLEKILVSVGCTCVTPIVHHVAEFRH
Sequence of recombinant human IL-17F (SEQ ID NO: 77) (human) (Q96PD4 other isoform, or with tags, fused parts or gaps limits assumed): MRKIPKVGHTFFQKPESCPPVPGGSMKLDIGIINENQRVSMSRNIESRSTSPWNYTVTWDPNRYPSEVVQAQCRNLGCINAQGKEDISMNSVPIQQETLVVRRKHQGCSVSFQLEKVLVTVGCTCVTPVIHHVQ
Sequence of BSA (P02769 25-607 limits assumed): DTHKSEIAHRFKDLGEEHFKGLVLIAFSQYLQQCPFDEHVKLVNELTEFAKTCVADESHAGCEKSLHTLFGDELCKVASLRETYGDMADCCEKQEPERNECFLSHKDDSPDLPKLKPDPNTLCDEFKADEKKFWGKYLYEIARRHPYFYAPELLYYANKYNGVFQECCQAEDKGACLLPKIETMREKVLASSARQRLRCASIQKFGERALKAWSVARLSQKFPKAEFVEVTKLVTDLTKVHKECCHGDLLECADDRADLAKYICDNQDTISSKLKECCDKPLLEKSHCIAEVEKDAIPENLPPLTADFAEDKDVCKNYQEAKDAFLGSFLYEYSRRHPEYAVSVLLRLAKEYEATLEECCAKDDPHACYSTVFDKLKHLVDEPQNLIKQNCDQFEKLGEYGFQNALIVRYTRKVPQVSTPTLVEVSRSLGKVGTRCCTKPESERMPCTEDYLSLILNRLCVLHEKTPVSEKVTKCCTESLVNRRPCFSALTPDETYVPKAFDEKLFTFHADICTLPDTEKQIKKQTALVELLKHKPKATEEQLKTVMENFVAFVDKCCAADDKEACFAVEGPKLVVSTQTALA
Sequence of recombinant mouse IL-17A/F (R&D Systems Cat#5390-IL) (mouse) (Q62386 26-158 limits assumed, chain 1 of 2): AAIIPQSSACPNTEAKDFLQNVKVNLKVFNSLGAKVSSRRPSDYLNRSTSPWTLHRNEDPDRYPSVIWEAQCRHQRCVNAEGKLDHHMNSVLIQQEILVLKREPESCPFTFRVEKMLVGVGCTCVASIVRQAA
Sequence of recombinant mouse IL-17A/F (R&D Systems Cat#5390-IL) (mouse) (Q7TNI7 29-161 limits assumed, chain 2 of 2, further chain): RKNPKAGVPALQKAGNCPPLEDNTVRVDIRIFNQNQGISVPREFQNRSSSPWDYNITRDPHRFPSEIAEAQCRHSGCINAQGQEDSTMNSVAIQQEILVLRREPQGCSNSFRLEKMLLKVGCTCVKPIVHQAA
Sequence of recombinant mouse IL-17A (SEQ ID NO: 83) (mouse) (Q62386 other isoform, or with tags, fused parts or gaps limits assumed): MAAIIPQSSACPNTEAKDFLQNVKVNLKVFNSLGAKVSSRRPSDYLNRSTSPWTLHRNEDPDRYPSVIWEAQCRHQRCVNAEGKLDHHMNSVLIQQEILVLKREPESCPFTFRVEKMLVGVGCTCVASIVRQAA
Sequence of recombinant rat IL-17A (SEQ ID NO: 85) (rat) (Q61453 other isoform, or with tags, fused parts or gaps limits assumed): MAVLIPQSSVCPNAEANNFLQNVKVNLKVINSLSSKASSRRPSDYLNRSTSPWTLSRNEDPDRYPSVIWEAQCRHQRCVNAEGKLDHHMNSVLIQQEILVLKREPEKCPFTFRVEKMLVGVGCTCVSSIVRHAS
Sequence of recombinant mouse IL-17F (SEQ ID NO: 84) (mouse) (Q7TNI7 other isoform, or with tags, fused parts or gaps limits assumed): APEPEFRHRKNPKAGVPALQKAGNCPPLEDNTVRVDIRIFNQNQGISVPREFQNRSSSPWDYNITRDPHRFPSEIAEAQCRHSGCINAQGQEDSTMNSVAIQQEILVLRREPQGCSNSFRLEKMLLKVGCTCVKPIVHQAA

| Substance | IC50, mouse KC secretion by CMT-93 cells; stimulus mIL-17F (30 nM) [1] | IC50, mouse KC secretion by CMT-93 cells; stimulus rIL-17A (1 nM) [2] | IC50, mouse KC secretion by CMT-93 cells; stimulus mIL-17A/F (3 nM) [3] | IC50, hu-GRO-alpha secretion by BJ cells; stimulus IL-17A (30 pM) + TNF-α (6 pM) [4] | IC50, hu-GRO-alpha secretion by BJ cells; stimulus IL-17A (1 nM) [4] | IC50, huIL-6 secretion by BJ cells; stimulus rhuIL-17A (30 pM) + rhuTNF-α (6 pM) [4] | IC50, huIL-6 secretion by BJ cells; stimulus rhuIL-17A (1 nM) [4] | IC50, hu-GRO-alpha secretion by BJ cells; stimulus IL-17F (10 nM) + TNF-α (6 pM) [5] | IC50, hu-GRO-alpha secretion by BJ cells; stimulus IL-17F (30 nM) [5] | IC50, huIL-6 secretion by BJ cells; stimulus rhuIL-17F (10 nM) + rhuTNF-α (6 pM) [5] | IC50, huIL-6 secretion by BJ cells; stimulus rhuIL-17F (30 nM) [5] | IC50, mouse KC secretion by CMT-93 cells; stimulus mIL-17A (1 nM) [6] | IC50, hu-GRO-alpha secretion by BJ cells; stimulus IL-17A/F (300 pM) + TNF-α (6 pM) [7] | IC50, hu-GRO-alpha secretion by BJ cells; stimulus IL-17A/F (3 nM) [7] | IC50, huIL-6 secretion by BJ cells; stimulus rhuIL-17A/F (300 pM) + rhuTNF-α (6 pM) [7] | IC50, huIL-6 secretion by BJ cells; stimulus rhuIL-17A/F (3 nM) [7] | O.D. (BSA [8]) | O.D. (BSA [9]) |
| --- | --- | --- | --- | --- | --- | --- | --- | --- | --- | --- | --- | --- | --- | --- | --- | --- | --- | --- |
| Simulect® (antibody) | > 3 µM | > 3 µM | > 3 µM | > 3 µM | > 0.1 µM | > 3 µM | > 0.1 µM | > 3 µM | > 1 µM | > 3 µM | > 1 µM | > 3 µM | > 3 µM | > 0.1 µM | > 3 µM | > 0.1 µM |  |  |
| Control antibody (not identified for this antigen) |  |  |  |  |  |  |  |  |  |  |  |  |  |  |  |  | 0.149 O.D. | 0.01 O.D. |

Reference: US20180194839A1
